Holding throughout (format): biochemical, Quillaja saponaria
A short description of assay [1]: Experiment 6-1: screening of rhamnosidases for derhamnosylation of saponins in treated bark extract (2%), QS-17 2296 to QS-18 2150 (PAR %). Conditions: TBE 2%, pH 7.5, 30 degC, 18 h; TIC peak area ratio percent of rhamnosylated starting saponin to derhamnosylated product, LCMS/MS; negative controls 4.876, 5.225.
A short description of assay [2]: Experiment 6-1: screening of rhamnosidases for derhamnosylation of saponins in treated bark extract (2%), QS-17 2310 to QS-18 2164 (PAR %). Conditions: TBE 2%, pH 7.5, 30 degC, 18 h; TIC peak area ratio percent, LCMS/MS; negative controls 3.061, 2.429.
Assay [3] is described as follows: Experiment 6-1: specificity of rhamnosidases towards other rhamnose residues (C3 saccharide rhamnose, C28 saccharide rhamnose). Conditions: TBE 2%, pH 7.5, 30 degC, 18 h; LCMS/MS; negative controls 0.18, 0.17.
The nature of assay [4]: Experiment 6-3: screening of rhamnosidases for derhamnosylation of saponins in crude bark extract (80%), relative % of Left, Middle and Right Peak by UV HPLC. Conditions: CBE 80%, pH 7.4, 30 degC, 19.5 h; for Left Peak: mainly QS-17 family, negative control 27%; for Middle Peak: mainly QS-18 and desglucosyl-QS-17 family, negative control 48%; for Right Peak: mainly QS-21 family, negative control 26%. As for the experimental part:
Selected variants were expressed and lysed as in the method of experiment 6-1.
Crude bark extract (CBE) solution was adjusted to pH 7.4 by addition of NaOH (2M). 20 uL clarified lysate was transferred into fresh 96 well PCR plates. 80 uL CBE solution (pH 7.4) was added to each well of lysate to a final concentration of 80%. Plates were incubated at 30 degC with shaking for 19.5 h.
Quenched with 100 uL MeCN+2% AcOH and shaken at room temperature for 10 mins prior to centrifugation (10 min, 4 degC) to remove particulates. Samples were analysed by UV HPLC using method of Experiment 4-4.
Three key peaks of interest are apparent using this chromatography: Left Peak (retention time approximately 2.30-2.35 min) comprising mainly QS-17 family components; Middle Peak (retention time approximately 2.37-2.42 min) comprising mainly QS-18 family components and desglucosyl-QS-17 family components; and Right Peak (retention time approximately 2.44-2.50 min) comprising mainly QS-21 family components. Peak identity was supported by MS/MS.
Enzyme mediated hydrolysis of the alpha-O-rhamnosylation at the C2 position of the arabinofuranose moiety of QS-17 family components leads to a decrease in Left Peak and an increase in Middle Peak due to formation of QS-18 family components. Enzyme mediated hydrolysis of the alpha-O-rhamnosylation at the C2 position of the arabinofuranose moiety of desglucosyl-QS-17 family components leads to a decrease in Middle Peak and an increase in Right Peak due to formation of QS-21 family components.
The relative percentage of each peak was determined. A decrease in Left Peak and a concomitant increase in Middle Peak and Right Peak is observed for enzymes active under these conditions.

A short description of assay [5]: Experiment 6-2: screening of rhamnosidases for derhamnosylation of saponins in treated bark extract (25%), relative % of Left, Middle and Right Peak by UV HPLC. Conditions: TBE 25%, pH 7.4, 19.5 h; for Left Peak: mainly QS-17 family, negative control 24%; for Middle Peak: mainly QS-18 and desglucosyl-QS-17 family, negative control 50%; for Right Peak: mainly QS-21 family, negative control 26%.

The nature of assay [6]: Experiment 6-1: screening of rhamnosidases for derhamnosylation of saponins in treated bark extract (2%), desglucosyl-QS-17 2134 to QS-21 1988 (PAR %). Conditions: TBE 2%, pH 7.5, 30 degC, 18 h; TIC peak area ratio percent, LCMS/MS; negative controls 2.719, 2.158.

B1: 1055 (protein)
chain: MRKAMILLTACLLSGTSALAADTLRDGFQTPPDSAKPRVWWHWLGNNVTADGIDKDLAWMRRVGIGGFQLFSGNLETPLLVDKPVVVFSPEWRAMVRHAAERADALGLEMTMAASAGWSETGGPWVKPEQAMKKLVWSETVITGAKRFQGRLPSPPTGNGPFQDMPMPPELRLPPPPPVPGARPRPPAAAHGPSPSYYADVAVVAYRLPDAVVPLGSLKPRISSSAGDAAILSDGRYDAPLRLEQKTPDGQLAWVEYTFDKPVSLPAVTLAATIEDPLNALSPSGVVEVADENGTFRDLVRVAPQEPVAFPAAAPVRTVALPEASSRRWRFRLDPIPPQALALPGMPQQTVHAVTELRFETEAMVDRWQAKAAYDTMRSYDTGPQPVRPVPARDQVVNLTARIGADGTLDWTPPPGRWQVLRIGYSLTGAKNHPADPEGTGFEVDKLDAAAVRAYLEGYLGPIDQALGDLRGAKGLKNLLTDSWEAGQANWTPALPAEFKRRRGYDLTPWLPVLTGRVVGSAADSERFLWDFRRTIADLLAEAHYKTIRDFAHEKGLGYYGEAMGTRLPTTGDGLLNKRYTDIPMGEFWQMPPGAPSDPAHTSDIAEAASAAHFYGQNLVAAEAFTALPFMPPFTATPAALKPFADRFLARGVNRFVIHTSVHQPSDDLRPGITLGPFGQYFTRHETWAEQAGAWMSYLSRSSYLQQQGRHVADIAWFVGEGGAISAPDPDRLSPALPKGYRLDFVARDAVTELLSVKDGHLLAPSGVVYRLLVVPPDARSGDLKLSLAVLRRLRDLLNQGAAVLAPRPTGSTSLSDDPAQVAALIGELWGVDTPIPRSIGKGRLYPAPDIAAALADRGVAPDLTMAGAMDADIVWSHRRTDDADIWFVANQKDRAESVTLSLRGDGRDVSLWHADSGAVEPAPFRQEAGRTSVPLTLSPNQAIFIVQRGSAPATARDVATPVEAESLALSGVWTLFFPKGQAMPDSVPLPKLGLWNDMSDPAVRHFSGTATYATEVKLPAAWAGKPVWIDLGAVHEVATVRVNGTEAGIAWKQPYRIDVGPLLKAGTNKLEVAVSNLWPNRIVGDAGGAGGVRVTTNTHPLLHPDTKARLLPSGLAGPVRLVRMELPGGNG
modifications: alpha proteobacterium
B1: the “QS-17 (PAR %)” value in assay [1] stood at 0.019%. The “Peak57 (PAR %)” value in assay [2] was found to be 0.000%. Further, the “ratio PP/QS-21” value in assay [3] is reported as 0.19. In assay [4], the “Left Peak” value was 25%, the “Middle Peak” value was 48% and the “Right Peak” value is recorded as 27%. Also, in assay [5], the “Left Peak” value turned out to be 7%, the “Middle Peak” value is on record as 62% and the “Right Peak” value is 31%. In addition, the “Peak75 (PAR %)” value in assay [6] was 0.000%.

B2: 1007 (protein, listed as Modestobacter marinus)
chain: MSDPTVTVVRLRTDDDSGLTATANATPRLSWSLAADRSGVLQRGYEVQVAPDPGFADPVSSGEVDSDVVVDHDWPAAPLTSRQVAYWRVRVRTDQGWTAWGEPACVEAALLEDADWTARPVFLAGDRGRDGVGPAPLLRREFELPAEPVSARLYLTALGVHRTTLNGRPVGDELLEPGWTSYRDRLLYATHDVTALLRAGRNVLAGSVGDGWFRGNLGWDRLRDFYGDASALLAQLEVRCADGSTVTVSTDEHWRGGYGAVRAADLYDGCDIDLREEPVGWAEAGFDDAGWEPVGTLPLPAGLSQRALPPVRVLQEIEPQVSELSDGTLAVDAGQNVTGWLRLRVTGPSGARVTVRHAEVLDEKGRLVTTLLRSARATDTVVLAGGTADLEPEFTFHGFRYAEVEVPPGVTVDAVRVAVVASDLRRTGQFSCSNPRVDQLFSNVIWSQRDNFLSIPTDCPQRDERLGWTGDIMAFAPTAAANFDSRAFLDSWLTDVGIEQLPSGGVPMVVPNCLTGEFPSPLPQADGAAGWADAVTVVPAALFRAHGSRDLLRRHVGSMQRWVDYVAGLLAEDGTWSGYLQLGDWLDPNAPPERPFEAVTDRDYVATVFVAHSARLLAATCRELGRGPDADRYAALGDRVAQAAWAKWADLAPTTQTGCALAIVFGSAPDAELPALGDALAGLVRASGGRIGTGFLGTPFVLPALTATGHLAEAYQLLLNEECPGWLYQIRHGATTMWERWDGILADGSVHPGQMADGSTMSSFNHYAYGAVASWLYESVAGLSPAAPGYREVLVAPQPGGGLTRAAASIETEYGPASVGWSTDGATLTVDVTLPPGTTGRFAVPAGWSPQQPVALLGSGQHTLLLTGAGA
Regarding B2, the “QS-17 (PAR %)” value in assay [1] is 0.104%. Besides, in assay [2], the “Peak57 (PAR %)” value was determined as 0.009%. For the same molecule, the “ratio PP/QS-21” value in assay [3] is 0.19. In assay [4], the “Left Peak” value came out at 24%, the “Middle Peak” value came out at 49% and the “Right Peak” value is listed as 27%. In addition, in assay [5], the “Left Peak” value is listed as 8%, the “Middle Peak” value amounted to 62% and the “Right Peak” value worked out at 30%. The “Peak75 (PAR %)” value in assay [6] came to 0.043%.

B3: 1001 (protein, listed as Brachybacterium faecium)
chain: MNSAPASPADTPSAGAGRPAAQLQDALAITAVEDTGRLPQLVHTVTLAQPRDQVRRAELLATAHGLYEMRIGGAPATESVLNPGWTTYERRLQVQRLDVTAQVRQRPEGLAAADADRLDLEATLADGWWRGDLGFDGGVRYGDDLALLAAVEIEFADGTRQRVVTDESWRSRPSAIMSANIYHGQHEDRRLGLGPETPVRVVEIDRSTLVEQVSPPVLRHESRRPERIWTSPAGRTLVDFGQNLVGWLRFTVTGPEGTEIVLRHAEVLEDGELGTRPLRAARATDRLVLAGDPAGETFEPTFTFHGFRYAEISGWPGELAAEDLEAVVVHSALRRTGWFECSHAGVNQLISNSLWSQRGNFLSVPTDCPQRDERLGWTGDIAAYAATAAFQHDVGDFLHGWLLDLGQEARMNPHGIVPFVVPDLLKPGLGAGDPAAADEGWGTPTAIWGDAAVWVAEALWTAYGDLDRLRAHYPAMVRHLDSVDRALSPSGLWDTGFQFGDWLDPDAPPEAADRAKADKGVVATACLVRSARFAAQAARLLGEEVDARRWQGLAERTLAAFTTAYVHENGTITSDCATVYALAIAFDLLDAGTRPRAAARLAEVVAEAGHRVSTGFAGTPFVTWALSETGHVEEAYRLLLEEGCPSWLYPVSMGATTIWERWDSMLPDGSINPGEMTSFNHYALGAVADWVYQVVLGVRPAAPGYRRIRIQPVPGPGIEWAEGAHDSAAGRIEVSWEHSADGLRGTATIPEGAEAEIVLPDGRARTVGPGRHSF
Regarding B3, in assay [1], the “QS-17 (PAR %)” value is on record as 0.075%. In assay [2], the “Peak57 (PAR %)” value is on record as 0.000%. In assay [3], the “ratio PP/QS-21” value is 0.19. In assay [4], the “Left Peak” value came out at 31%, the “Middle Peak” value is on record as 45% and the “Right Peak” value came to 24%. Besides, in assay [5], the “Left Peak” value worked out at 14%, the “Middle Peak” value is listed as 59% and the “Right Peak” value amounted to 27%. Moreover, in assay [6], the “Peak75 (PAR %)” value was 0.137%.

B4: 1075 (protein, listed as Asticcacaulis sp.)
chain: MTRLNRRHFLAASGLAATVAPTMSRSKTLAKTALGVTDLRAEQSENLLGTQAREPRLSWRLTGTERGIMQAGYRLRAGSKPGTADLWDSGNIASDACFDIPYKGKPLNAMQRVWWTVEVRDAKGRTATSAPAWFETGLLAPGDWKAQWIVAEDALAEGDRKAGLQWIWSEKALDNRLHAFRLDFDVPANLASSEVLIAGKDWIRGVWANGEQLPTPDQLVPNWGTLVPVPAKLKPGKNSVCVLVQAETTGFFPVDGGAFAALIRLRLSDGTIKRLVSDTNWKVRPLPPEAWTTADFDASGWVRAQKSGADAQNDPRPAEPAMLLRKAFTPAKKVVNARLYATALGAYEARLNGQPVSTAKMAPEISVTKDHIYYQTYDVTKLIRAGDNALGVVMGDGFYASAFGWRLERYGFGPAPRRLLAQLRLDYADGTSEWIVTDDSWRIGQSPIVTSEIYDGEVFDARLKTDGWDKTGFNAARWPAVRLGQAPHTKIVAQTGPLLVPVSKRRGTITQPKPGIYVIDFGQNFAGWARLNVKGTSGHTVTLKFAEYLKADGEVDQANLRMAKCRDIYTLRGDAGGETFEPSFTYHGFRYVQVENFPGVPTPADIEGIVVTSYCRETGRMTFDDPIIQKFWQNSVWSQRSNFFMVPTDCPQRDERMGWMGDIQVFLDAATFNMECDPFIRRYLDEVRASQTAEGAFPIVCPQPESFPEVTTAGWSEAGVILPWTLWRRYGDTAVIDENWVAMTKWMDYLFKYNPDYVWRKERGLDLGDWLSVDAVKPDDETTPRILCATGYWAYCADLMTQMAAATGREAEAAKYREVRAKIGAAFAKEFVDKDGKAGNGSQTSQILALYFNLVPAERRAAAGEILAKEIRGRGMKLSTGFLGTPYLLDVLADTGHLEEVSGLLKQREKPSWGYMPLKGATTMWERWDGDTGDLAMNSYNHYAYGAVCGFMYRRLAGLAPAAPGFRKMTVEPIYLPHVGKVTANYESCLGTMAGAVTGNASGLKTYDLTVPPNAVAEVILPDGAWREGGKALTGHADIRALRRDSGKVRFEVGSGSYRFKI
As for B4, in assay [1], the “QS-17 (PAR %)” value is listed as 0.043%. In assay [2], the “Peak57 (PAR %)” value turned out to be 0.000%. Further, the “ratio PP/QS-21” value in assay [3] is recorded as 0.18. Further, in assay [4], the “Left Peak” value was 26%, the “Middle Peak” value was 47% and the “Right Peak” value is given as 27%. In addition, in assay [5], the “Left Peak” value is reported as 9%, the “Middle Peak” value came out at 61% and the “Right Peak” value worked out at 30%. Moreover, in assay [6], the “Peak75 (PAR %)” value came to 0.000%.

Values taken from patent US20240026407A1, “MODIFICATION OF SAPONINS” (GLAXOSMITHKLINE BIOLOGICALS SA, priority 2020, published 2024).
